Here are results for 38 variants from the Human Domainome abundance scans (Beltran et al. 2025).

B1: POU domain, class 4, transcription factor 2, residues 256 to 327; numbered along this chain, Q12837 (parent)
chain: RDLEAFAERFKQRRIKLGVTQADVGSALANLKIPGVGSLSQSTICRFESLTLSHNNMIALKPILQAWLEEAE

± gives the uncertainty stated by the source.

In the series the parent is B1. The series can be described thus: abundance fitness (aPCA) (normalised: wild type 0, dead -1); higher = more abundant; growth selection in yeast, the domain comes from the species named. Particulars: Homo sapiens.
Turning to RDLEAFAERFKQRRIKLGVTQADVGSALANLKIPGVGNLSQSTICRFESLTLSHNNMIALKPILQAWLEEAE [S38N], the abundance fitness turned out to be 0.133 ± 0.11.

Take RDLEAFAERFKQRRIKLGVTQADVGSALANLKIPGVGALSQSTICRFESLTLSHNNMIALKPILQAWLEEAE [S38A]: the abundance fitness is -0.013 ± 0.046.

Consider RDLEAFAERFKQRRIKLGVTQADVGSALANLKIPGVGVLSQSTICRFESLTLSHNNMIALKPILQAWLEEAE [S38V], for which the abundance fitness is -0.159 ± 0.069.

In the case of RDLEAFAERFKQRRIKLGVTQADVGSALANLKIPGVGDLSQSTICRFESLTLSHNNMIALKPILQAWLEEAE [S38D], the abundance fitness was -0.277 ± 0.12.

Take RDLEAFAERFKQRRIKLGVTQADVGSALANLKIPGNGSLSQSTICRFESLTLSHNNMIALKPILQAWLEEAE [V36N]: the abundance fitness was -0.387 ± 0.19.

RDLEAFAERFKQRRIKLGVTQADVGSALANLKIPGHGSLSQSTICRFESLTLSHNNMIALKPILQAWLEEAE [V36H]: the abundance fitness was -0.267 ± 0.19.

As for RDLEAFAERFKQRRIKLGVTQADVGSALANLKIPGCGSLSQSTICRFESLTLSHNNMIALKPILQAWLEEAE [V36C], the abundance fitness was -0.4 ± 0.15.

On to RDLEAFAERFKQRRIKLGVTQADVGSALANLKIPGLGSLSQSTICRFESLTLSHNNMIALKPILQAWLEEAE [V36L], for which the abundance fitness was determined as 0.061 ± 0.046.

Regarding RDLEAFAERFKQRRIKLGVTQADVGSALANLKIPGIGSLSQSTICRFESLTLSHNNMIALKPILQAWLEEAE [V36I], the abundance fitness turned out to be 0.166 ± 0.17.

Regarding RDLEAFAERFKQRRIKLGVTQADVGSALANLKIPGFGSLSQSTICRFESLTLSHNNMIALKPILQAWLEEAE [V36F], the abundance fitness is -0.176 ± 0.18.

On to RDLEAFAERFKQRRIKLGVTQADVGSALANLKIPGEGSLSQSTICRFESLTLSHNNMIALKPILQAWLEEAE [V36E], for which the abundance fitness is -0.139 ± 0.12.

On to RDLEAFAERFKQRRIKLGVTQADVGSALANLKIPGRGSLSQSTICRFESLTLSHNNMIALKPILQAWLEEAE [V36R], for which the abundance fitness is -0.617 ± 0.071.

As to RDLEAFAERFKQRRIKLGVTQADVGSALANLKIPGTGSLSQSTICRFESLTLSHNNMIALKPILQAWLEEAE [V36T], the abundance fitness is -0.417 ± 0.09.

Regarding RDLEAFAERFKQRRIKLGVTQADVGSALANLKIPGYGSLSQSTICRFESLTLSHNNMIALKPILQAWLEEAE [V36Y], the abundance fitness was -0.047 ± 0.25.

As to RDLEAFAERFKQRRIKLGVTQADVGSALANLKIPGQGSLSQSTICRFESLTLSHNNMIALKPILQAWLEEAE [V36Q], the abundance fitness was -0.147 ± 0.072.

Regarding RDLEAFAERFKQRRIKLGVTQADVGSALANLKIPGDGSLSQSTICRFESLTLSHNNMIALKPILQAWLEEAE [V36D], the abundance fitness was -0.278 ± 0.21.

Turning to RDLEAFAERFKQRRIKLGVTQADVGSALANLKIPGKGSLSQSTICRFESLTLSHNNMIALKPILQAWLEEAE [V36K], the abundance fitness was -0.532 ± 0.14.

As for RDLEAFAERFKQRRIKLGVTQADVGSALANLKIPGMGSLSQSTICRFESLTLSHNNMIALKPILQAWLEEAE [V36M], the abundance fitness is -0.203 ± 0.11.

Regarding RDLEAFAERFKQRRIKLGVTQADVGSALANLKIPGSGSLSQSTICRFESLTLSHNNMIALKPILQAWLEEAE [V36S], the abundance fitness was -0.186 ± 0.071.

Regarding RDLEAFAERFKQRRIKLGVTQADVGSALANLKIPGVKSLSQSTICRFESLTLSHNNMIALKPILQAWLEEAE [G37K], the abundance fitness is -0.209 ± 0.11.

In the case of RDLEAFAERFKQRRIKLGVTQADVGSALANLKIPGVDSLSQSTICRFESLTLSHNNMIALKPILQAWLEEAE [G37D], the abundance fitness is -0.198 ± 0.18.

As for RDLEAFAERFKQRRIKLGVTQADVGSALANLKIPGVLSLSQSTICRFESLTLSHNNMIALKPILQAWLEEAE [G37L], the abundance fitness was -0.205 ± 0.074.

Consider RDLEAFAERFKQRRIKLGVTQADVGSALANLKIPGVFSLSQSTICRFESLTLSHNNMIALKPILQAWLEEAE [G37F], for which the abundance fitness is -0.398 ± 0.12.

Take RDLEAFAERFKQRRIKLGVTQADVGSALANLKIPGVPSLSQSTICRFESLTLSHNNMIALKPILQAWLEEAE [G37P]: the abundance fitness was -0.2 ± 0.1.

With RDLEAFAERFKQRRIKLGVTQADVGSALANLKIPGVSSLSQSTICRFESLTLSHNNMIALKPILQAWLEEAE [G37S], the abundance fitness stood at 0.028 ± 0.055.

On to RDLEAFAERFKQRRIKLGVTQADVGSALANLKIPGVQSLSQSTICRFESLTLSHNNMIALKPILQAWLEEAE [G37Q], for which the abundance fitness was -0.015 ± 0.097.

Regarding RDLEAFAERFKQRRIKLGVTQADVGSALANLKIPGVISLSQSTICRFESLTLSHNNMIALKPILQAWLEEAE [G37I], the abundance fitness was -0.587 ± 0.28.

In the case of RDLEAFAERFKQRRIKLGVTQADVGSALANLKIPGVESLSQSTICRFESLTLSHNNMIALKPILQAWLEEAE [G37E], the abundance fitness was -0.207 ± 0.12.

For RDLEAFAERFKQRRIKLGVTQADVGSALANLKIPGVWSLSQSTICRFESLTLSHNNMIALKPILQAWLEEAE [G37W], the abundance fitness was -0.68 ± 0.14.

Consider RDLEAFAERFKQRRIKLGVTQADVGSALANLKIPGVRSLSQSTICRFESLTLSHNNMIALKPILQAWLEEAE [G37R], for which the abundance fitness was -0.111 ± 0.055.

For the variant RDLEAFAERFKQRRIKLGVTQADVGSALANLKIPGVNSLSQSTICRFESLTLSHNNMIALKPILQAWLEEAE [G37N], the abundance fitness is -0.309 ± 0.28.

Turning to RDLEAFAERFKQRRIKLGVTQADVGSALANLKIPGVASLSQSTICRFESLTLSHNNMIALKPILQAWLEEAE [G37A], the abundance fitness was -0.098 ± 0.066.

As for RDLEAFAERFKQRRIKLGVTQADVGSALANLKIPGVHSLSQSTICRFESLTLSHNNMIALKPILQAWLEEAE [G37H], the abundance fitness was 0.083 ± 0.16.

On to RDLEAFAERFKQRRIKLGVTQADVGSALANLKIPGVYSLSQSTICRFESLTLSHNNMIALKPILQAWLEEAE [G37Y], for which the abundance fitness is -0.418 ± 0.23.

For the variant RDLEAFAERFKQRRIKLGVTQADVGSALANLKIPGVTSLSQSTICRFESLTLSHNNMIALKPILQAWLEEAE [G37T], the abundance fitness was -0.162 ± 0.08.

For RDLEAFAERFKQRRIKLGVTQADVGSALANLKIPGVVSLSQSTICRFESLTLSHNNMIALKPILQAWLEEAE [G37V], the abundance fitness is -0.269 ± 0.067.

As for RDLEAFAERFKQRRIKLGVTQADVGSALANLKIPGVCSLSQSTICRFESLTLSHNNMIALKPILQAWLEEAE [G37C], the abundance fitness is -0.118 ± 0.092.

With RDLEAFAERFKQRRIKLGVTQADVGSALANLKIPGVMSLSQSTICRFESLTLSHNNMIALKPILQAWLEEAE [G37M], the abundance fitness was -0.163 ± 0.085.
